The target in experiment [1] is T1, soluble human FcRn (shFcRn) (human, UniProt P55899 24-297; P61769 21-119).
T1 construct: For crystallography it was expressed in CHOK1SV cells and deglycosylated with PNGaseF; biotinylated for phage selection; also called hFcRn/β2m; FcRn-biotin
As to the kind of experiment: SPR (Biacore), immobilized shFcRn, pH 6, steady-state fit. A general note: SPR reads the build-up and loss of mass on a sensor chip optically.

In experiment [2] the target is T1, soluble human FcRn (shFcRn). In words: SPR (Biacore), immobilized shFcRn, pH 7.4.
For experiment [3] the target is unchanged. In words: SPR (Biacore), Kd pH 7.4 divided by Kd pH 6.0.

The values that follow come from patent publication US20170209529A1 (BRIGHAM AND WOMEN S HOSPITAL, published 2017).

Where “and” joins values, the source holds several entries; their conditions need not be identical. Equal entries are not always repeated. Bridge positions count the residues as written; N and C are the ends.

T1 sequence (P55899 24-297 limits assumed, chain 1 of 2): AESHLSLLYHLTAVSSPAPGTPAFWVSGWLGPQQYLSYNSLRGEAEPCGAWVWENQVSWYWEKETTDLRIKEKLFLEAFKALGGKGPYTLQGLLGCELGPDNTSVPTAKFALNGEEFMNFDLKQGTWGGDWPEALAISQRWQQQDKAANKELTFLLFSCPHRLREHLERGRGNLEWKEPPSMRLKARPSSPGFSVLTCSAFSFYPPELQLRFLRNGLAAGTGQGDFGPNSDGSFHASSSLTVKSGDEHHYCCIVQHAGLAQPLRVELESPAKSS
T1 sequence (P61769 21-119 limits assumed, chain 2 of 2): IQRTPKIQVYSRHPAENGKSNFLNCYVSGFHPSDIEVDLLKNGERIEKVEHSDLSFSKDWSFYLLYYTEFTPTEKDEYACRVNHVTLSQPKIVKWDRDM

For orientation: Kd means a measure of binding affinity in units of concentration. Read a low Kd as tighter binding. As to Ac-VMACFWDEEFKCDQG-NH2 (disulfide 4-12 (inferred)) [SYN1215], the affinity in experiment [1], expressed as Kd, was 2840 nM.
For the molecule Ac-VMHCFWDEGFKCDQG-NH2 (disulfide 4-12 (inferred)) [SYN1257], the results for the Kd in experiment [2] and in experiment [1] were 40000 nM and 1450 nM, respectively.
Consider Ac-MTCKWDDGFSCEYV-NH2 (disulfide 3-11 (inferred)) [SYN1161], for which the Kd in experiment [1] was 1210 nM and 1170 nM.
For Ac-AGVMKCWWDEEMLCRAFGTGGGK-NH2 (disulfide 6-14 (inferred)) [SYN531], the Kd in experiment [2] was 44400 nM; in experiment [1], 450 nM and 300 nM. The “Kd Ratio 7.4/6.0” value in experiment [3] amounted to 99.
On to Ac-VMKCWWDEEMLCRAF-NH2 (disulfide 4-12 (inferred)) [SYN1532], for which the Kd in experiment [2] is 17300 nM; in experiment [1] it was 154 nM. For the same molecule, in experiment [3], the “Kd Ratio 7.4/6.0” value was found to be 112.
In experiment [1], Ac-VMKCWWDEEMLCRAV-NH2 (disulfide 4-12 (inferred); not fully specified) [SYN1540B] registered a Kd of 702 nM. In other words, the sub-micromolar range.
With Ac-VMHCWWDEEMLCRAF-NH2 (disulfide 4-12 (inferred)) [SYN1533], the Kd in experiment [2] was 59100 nM; in experiment [1] it was 558 nM. In experiment [3], the “Kd Ratio 7.4/6.0” value amounted to 106.
Taken in the same sequence, the figures for Ac-VMKCFWDEEMLCRAF-NH2 (disulfide 4-12 (inferred)) [SYN1535] were 91300 nM, 2600 nM and 35.
Taken in the same sequence, the figures for Ac-VMRCWWDEEMLCRAF-NH2 (disulfide 4-12 (inferred)) [SYN1534] were 20200 nM, 162 nM and 125.
Taken in the same sequence, the figures for Ac-AMTCKWDDGFSCEYV-NH2 (disulfide 4-12 (inferred)) [SYN1144] were 29100 nM, 1250 nM and 23.3.
In the case of Ac-YMTCKWDDGFSCEYA-NH2 (disulfide 4-12 (inferred)) [SYN1156], the Kd was determined as 22000 nM in experiment [2] and 580 nM in experiment [1]. Besides, in experiment [3], the “Kd Ratio 7.4/6.0” value is 38.
With Ac-YMTCKWDDGFSCAYV-NH2 (disulfide 4-12 (inferred)) [SYN1154], the Kd in experiment [2] was found to be 9200 nM. Besides, the “Kd Ratio 7.4/6.0” value in experiment [3] amounted to 20.
In the case of Ac-YMTCKWDDGFSCEAV-NH2 (disulfide 4-12 (inferred)) [SYN1155], the Kd in experiment [2] stood at 17300 nM; in experiment [1] it was 1760 nM. Moreover, in experiment [3], the “Kd Ratio 7.4/6.0” value was determined as 9.8.
As for Ac-YMTCKWDDAFSCEYV-NH2 (disulfide 4-12 (inferred)) [SYN1151], the Kd in experiment [2] was 20700 nM; in experiment [1], 1500 nM and 830 nM. The “Kd Ratio 7.4/6.0” value in experiment [3] turned out to be 25.
As to Ac-YMTCKWADGFSCEYV-NH2 (disulfide 4-12 (inferred)) [SYN1149], the Kd in experiment [2] stood at 12000 nM; in experiment [1], 1540 nM. Besides, the “Kd Ratio 7.4/6.0” value in experiment [3] is 7.8.
